Bridge positions count the residues as written; N and C are the ends. Some results are limits rather than exact numbers.

Broadly, the Kd is the concentration at which binding is half-saturated.

Experiment [1] addresses T1, beta-catenin Armadillo domain, residues 134-665 (human, UniProt P35222 134-665, biotinylated through the N-terminal yBBr tag for SPR; tag cleaved off for crystallography).
T1 construct: also called β-catenin; CTNNB1
T1 sequence: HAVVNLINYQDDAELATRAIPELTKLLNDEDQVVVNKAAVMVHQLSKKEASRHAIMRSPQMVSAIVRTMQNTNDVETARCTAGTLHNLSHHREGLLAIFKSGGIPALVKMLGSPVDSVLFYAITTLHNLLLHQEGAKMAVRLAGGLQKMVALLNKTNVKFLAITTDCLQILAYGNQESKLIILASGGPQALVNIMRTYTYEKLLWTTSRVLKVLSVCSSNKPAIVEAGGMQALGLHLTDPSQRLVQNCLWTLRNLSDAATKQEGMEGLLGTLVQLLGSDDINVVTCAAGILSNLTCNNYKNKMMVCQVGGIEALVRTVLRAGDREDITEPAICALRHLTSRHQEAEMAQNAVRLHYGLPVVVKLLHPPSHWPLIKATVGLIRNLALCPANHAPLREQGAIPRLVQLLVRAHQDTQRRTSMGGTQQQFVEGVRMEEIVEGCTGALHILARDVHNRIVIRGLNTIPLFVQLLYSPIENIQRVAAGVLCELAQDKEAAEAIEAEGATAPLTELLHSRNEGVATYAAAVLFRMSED
The experiment in a line: SPR, immobilized β-catenin, MDM2 flowed in the presence of 1 µM Helicon H330 (1.m112). In general terms: In SPR one partner is held on a chip, and binding of the other changes the refractive index at the surface.

In experiment [2] the target is T1, beta-catenin Armadillo domain, residues …. The experiment in a line: SPR, immobilized β-catenin, MDM2 flowed in the presence of 1 µM Helicon H332 (1.m114).
For experiment [3] the target is unchanged. The experiment in a line: SPR, alanine-scanning table.
The target of experiment [4] is T2, active CDK2 (with T160 phosphorylated) (Homo sapiens (Human), UniProt P24941 1-298). The experiment in a line: SPR, ligand CDK2 (pT160), additive 200 nM Dinaciclib.
The target of experiment [5] is CDK2:Cyclin E1 (CCNE1) complex (UniProt P24864 81-363). The experiment in a line: SPR, ligand CDK2 (pT160) : CCNE1.
Experiment [6] addresses T2, active CDK2 (with T160 phosphorylated). The experiment is described as follows: SPR, ligand CDK2 (pT160), no additive.
Experiment [7] shares this target. The experiment is described as follows: SPR, ligand CDK2 (pT160), additives 2 mM AMPPNP, 5mM MgCl2.
In experiment [8] the target is T3, PPIA, full length (residues 1-165) (human, UniProt P62937 1-165).
T3 construct: also called Cyclophilin A; peptidyl-prolyl cis-trans isomerase A
T3 sequence (P62937 whole entry, the tested form may be a part): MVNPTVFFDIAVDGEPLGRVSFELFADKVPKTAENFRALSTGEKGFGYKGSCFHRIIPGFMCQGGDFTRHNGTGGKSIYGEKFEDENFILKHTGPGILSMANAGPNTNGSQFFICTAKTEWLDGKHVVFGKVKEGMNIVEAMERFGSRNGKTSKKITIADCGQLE
The experiment in a line: SPR, affinity fit.

In experiment [9] the target is T3, PPIA, full length (residues 1-165). The experiment in a line: assay not named on the sheet; printed beside the co-crystal structure.

B1: MDM2 p53-binding domain, residues 17-111, C17S (enzyme)
chain: SQIPASEQETLVRPKPLLLKLLKSVGAQKDTYTMKEVLFYLGQYIMTKRLYDEKQQHIVYCSNDLLGDLFGVPSFSVKEHRKIYTMIYRNLVVVN
notes: Form for crystallography and the FP assays
For the molecule B1, the results for the Kd in experiment [1] and in experiment [2] were 0.254 µM and 1.34 µM, respectively.

B2: FP49251 (peptide)
stapled peptide: Ac-DPATARCEWAALHCELV-NH2
modifications: bridge 7-14; not fully specified (bridges); printed as Ac-DPATARCEWAALHCELV-NH2
notes: also called H-to-A member of the alanine-scanning series of FP01567
In turn, B2 gave a Kd in [3] of 0.4 µM.

B3: FP49252 (peptide)
stapled peptide: Ac-DPATHACEWAALHCELV-NH2
modifications: bridge 7-14; not fully specified (bridges); printed as Ac-DPATHACEWAALHCELV-NH2
notes: also called R-to-A member of the alanine-scanning series of FP01567
In the case of B3, in experiment [3], binding was characterised by a dissociation constant (Kd) of 0.3 µM.

B4: FP49257 (peptide)
stapled peptide: Ac-DPATHRCEWAALHCALV-NH2
modifications: bridge 7-14; not fully specified (bridges); printed as Ac-DPATHRCEWAALHCALV-NH2
notes: also called E-to-A (after the second Cys) member of the alanine-scanning series of FP01567
Take B4: in experiment [3], the Kd is 1 µM.

B5: FP49255 (peptide)
stapled peptide: Ac-DPATHRCEWAAAHCELV-NH2
modifications: bridge 7-14; not fully specified (bridges); printed as Ac-DPATHRCEWAAAHCELV-NH2
notes: also called L-to-A member of the alanine-scanning series of FP01567
The molecule B5 had a Kd in experiment [3] of more than 20 µM.

B6: FP49259 (peptide)
stapled peptide: Ac-DPATHRCEWAALHCELA-NH2
modifications: bridge 7-14; not fully specified (bridges)
notes: also called V-to-A (last residue) member of the alanine-scanning series of FP01567
B6 had a Kd in [3] of more than 20 µM.

B7: FP49254 (peptide)
stapled peptide: Ac-DPATHRCEAAALHCELV-NH2
modifications: bridge 7-14; not fully specified (bridges); printed as Ac-DPATHRCEAAALHCELV-NH2
notes: also called W-to-A member of the alanine-scanning series of FP01567
For the molecule B7, the dissociation constant Kd in [3] was more than 20 µM.

B8: FP49258 (peptide)
stapled peptide: Ac-DPATHRCEWAALHCEAV-NH2
modifications: bridge 7-14; not fully specified (bridges); printed as Ac-DPATHRCEWAALHCEAV-NH2
notes: also called L-to-A (penultimate residue) member of the alanine-scanning series of FP01567
Consider B8, for which the Kd in experiment [3] was more than 20 µM.

B9: FP49253 (peptide)
stapled peptide: Ac-DPATHRCAWAALHCELV-NH2
modifications: bridge 7-14; not fully specified (bridges); printed as Ac-DPATHRCAWAALHCELV-NH2
notes: also called E-to-A member of the alanine-scanning series of FP01567
Molecule B9 showed a Kd in experiment [3] of 2.7 µM.

B10: FP19711 (peptide)
peptide: Ac-DPAWWVCAIAAIECSDV-NH2
modifications: bridge 7-14; not fully specified (bridges)
notes: Cluster C51
B10: the Kd in [4] amounted to 2 µM; in [5], 1.7 µM; in experiment [6], 1.7 µM; in experiment [7], 0.9 µM.

B11: FP33215 (peptide)
peptide: Ac-WWVCAIAAIECSD-NH2
modifications: bridge 4-11; also: Cys staple linker not named
notes: also called truncated version of FP19711
In the case of B11, in experiment [5], the affinity, expressed as Kd, was 0.27 µM.

B12: FP29092 (peptide)
peptide: Ac-DPANQDCHVAAWHCWQR-NH2
modifications: bridge 7-14; not fully specified (bridges)
notes: Cluster C53
Turning to B12, in [8], the Kd was 3 µM.

B13: FP29103 (peptide)
peptide: Ac-PDCHIRAYVCH-NH2
modifications: bridge 3-10; not fully specified (bridges)
notes: Cluster C54
Consider B13, for which the dissociation constant (Kd) in [8] is 10 µM.

B14: FP29102 (peptide)
peptide: Ac-PECHIEAYWCI-NH2
modifications: bridge 3-10; not fully specified (bridges); printed as Ac-PECHIEA YWCI-NH2
notes: Cluster C54
With B14, binding in experiment [9] was characterised by a dissociation constant (Kd) of 11 µM.

(Values after patent US20240376151A1 (FOG PHARMACEUTICALS, published 2024).)
